Laboratory results taken from paper PMC7693655, “The Partner Switching System of the SigF Sigma Factor in Mycobacterium smegmatis and Induction of the SigF Regulon Under Respiration-Inhibitory Conditions” (Frontiers in Microbiology, 2020).

B1: C-terminally His6-tagged WT RsfB (MSMEG_6127) purified from E. coli (natural protein, M. smegmatis, UniProt A0R5B0 1-119, looked up)
chain: MTSQDPANCTVEERRVGDITVVAVTGTVDMLTAPKLEDAIGSAAKSEPSAVVVDLSAVDFLASAGMGVLVAAHGELAPAVRLVVVADGPATSRPLKLVGIADVVDLFATLDEALSSLKT
notes: Anti-SigF antagonist RsfB of Mycobacterium smegmatis, locus MSMEG_6127; unphosphorylated when made in E. coli; also called RsfB-His6; source: E. coli BL21 (DE3) with pT7-7rsfB, purified (Ni-Sepharose twice, PD-10 desalting)

Key:
[1] = target: RsbW1 (MSMEG_1803), purified from E. coli (pT7-7rsbW1) (M. smegmatis) (UniProt A0QTD7); assay: native gel or EMSA; non-denaturing PAGE, CBB stain; 160 pmol RsbW1 mixed with increasing amounts of WT, S63A or S63E RsfB in binding buffer [40 mM Tris-HCl (pH 8.0), 0.01 mM EDTA, 10 mM MgCl2, 20% (v/v) glycerol], 30 min at 25°C
[2] = target: T1, RsbW1 (MSMEG_1803), purified from E. coli (pT7-7rsbW1) (M. smegmatis, UniProt A0QTD7 1-138); assay: as above; conditions: both partners purified
T1 construct: Anti-sigma factor RsbW1 of Mycobacterium smegmatis, locus MSMEG_1803, 138 amino acids; also called purified RsbW1; source: E. coli BL21 (DE3) with pT7-7rsbW1, purified (Ni-Sepharose)
T1 sequence (looked up): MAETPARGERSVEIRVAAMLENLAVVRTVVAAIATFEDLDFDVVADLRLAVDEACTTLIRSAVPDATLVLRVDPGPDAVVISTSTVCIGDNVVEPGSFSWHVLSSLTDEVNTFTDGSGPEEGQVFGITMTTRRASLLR

| Molecule | stoichiometry N [1] | stoichiometry N [2] |
| --- | --- | --- |
| C-terminally His6-tagged S63A RsfB purified from E. coli (natural protein) | 1 | – |
| B1 | – | 1 |
